Assay results reported in patent US5668264, “High affinity PDGF nucleic acid ligands” (NeXstar Pharmaceuticals, Inc.).

B1: ssDNA ligand 14 (ssDNA)
DNA: ATCCGCCTGATTAGCGATACTAGGCTTGACAAAGGGCACCATGGCTTAGTGGTCCTAGTACTTGAGCAAAATCACCTGCAGGGG
B2: ssDNA ligand 40 (ssDNA)
DNA: ATCCGCCTGATTAGCGATACTAGTGGAACAGGGCACGGAGAGTCAAACTTTGGTTTCCCCCACTTGAGCAAAATCACCTGCAGGGG
B3: ssDNA ligand 36 (ssDNA)
DNA: ATCCGCCTGATTAGCGATACTCCACAGGCTACGGCACGTAGAGCATCACCATGATCCTGTGACTTGAGCAAAATCACCTGCAGGGG
B4: ssDNA ligand 26 (ssDNA)
DNA: ATCCGCCTGATTAGCGATACTAGAGGGGAAGTAGGCTGCCTGACTCGAGAGAGTCCTCCCGACTTGAGCAAAATCACCTGCAGGGG
B5: ssDNA ligand 38 (ssDNA)
DNA: ATCCGCCTGATTAGCGATACTAAAGTCGTGCAGGGTCCCCTGGAAGCATCTCCGATCCCAGACTTGAGCAAAATCACCTGCAGGGG

Columns and labels:
PDGF BB = PDGF BB (UniProt P01127 P01127:82-190); test: filter; biphasic, higher affinity component; conditions: chain copies: BB homodimer (inferred)
Sequence of PDGF BB (P01127 82-190, one chain of several): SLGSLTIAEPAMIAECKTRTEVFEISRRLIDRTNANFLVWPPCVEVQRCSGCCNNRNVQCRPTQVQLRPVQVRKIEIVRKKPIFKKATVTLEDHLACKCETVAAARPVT
Description: (§1) 22: 1859), and the equilibrium dissociation constants were determined by nitrocellulose filter binding. […] […]-[…]-3') SEQ ID NO: 88, and 26t (5'-[…] T-3') SEQ ID NO: 89.
(§2) The binding data were analyzed according the formalism described in Jellinek et al., 1994: supra.

PDGF AB [1] = biological target: T1, PDGF AB (Homo sapiens, UniProt P04085;P01127 P04085:87-211,P01127:82-190); test: filter; biphasic, higher affinity component; conditions: tags: R&D Systems 222-AB; chain copies: A/B chain heterodimer (inferred)
T1 sequence (P01127 82-190, chain 2 of 2, other chains not shown): as the sequence (P01127 82-190, one chain of several) above
Description: as §1, §2

PDGF AA = PDGF AA (UniProt P04085 P04085:87-211); test: filter; monophasic; conditions: chain copies: AA homodimer (inferred)
Source text: […]-[…]-3') SEQ ID NO: 88, and 26t (5'-[…] T-3') SEQ ID NO: 89.

PDGF AB [2] = biological target: T1, PDGF AB; test: filter; among seven highest affinity ligands; data not shown; conditions: tags: R&D Systems 222-AB; chain copies: A/B chain heterodimer (inferred)

| Binder | Kd (PDGF BB) [nM] | Kd (PDGF AB [1]) [nM] | Kd (PDGF AA) [nM] | binding result (PDGF AB [2]) |
| --- | --- | --- | --- | --- |
| TGGGAGGGCGCGTTCTTCGTGGTTACTTTTAGTCCCGT (ssDNA, 3'-3' inverted T at 3' end (described for truncated ligands)) [20t-a] | 0.09 | 0.082 | – | – |
| CCACAGGCTACGGCACGTAGAGCATCACCATGATCCTGTGT (ssDNA, 3'-3' inverted T at 3' end) [36t] | 0.054 | 0.082 | 72 | – |
| TACTCAGGGCACTGCAAGCAATTGTGGTCCCAATGGGCTGAGTAT (ssDNA, 3'-3' inverted T at 3' end) [41t] | 0.056 | 0.051 | – | – |
| B1 | – | – | – | binds |
| B2 | – | – | – | binds |
| B3 | – | – | – | binds |
| B4 | – | – | – | binds |
| B5 | – | – | – | binds |
